Laboratory results published in patent US20080138335A1.

Tests used:
[1] = target: CD40 expressed on Ramos [ATCC] cells (UniProt P25942); assay: cell-based or functional assay
[2] = target: CD40 expressed on Ramos [ATCC] cells (UniProt P25942); assay: flow cytometry (FACS) on Ramos cells expressing CD40, negative control at 2 ug/ml, FIG. 3
[3] = target: CD40 expressed on Ramos [ATCC] cells (UniProt P25942); assay: flow cytometry (FACS) on Ramos cells expressing CD40, negative control at 2 ug/ml, FIG. 1A
[4] = target: CD40 expressed on Ramos [ATCC] cells (UniProt P25942); assay: flow cytometry (FACS) on Ramos cells expressing CD40, negative control at 2 ug/ml, FIG. 1B
[5] = target: CD40 expressed on Ramos [ATCC] cells (UniProt P25942); assay: flow cytometry (FACS) on Ramos cells expressing CD40, negative control at 2 ug/ml, FIG. 1C

Sequence of CD40 expressed on Ramos [ATCC] cells (P25942 21-277 limits assumed): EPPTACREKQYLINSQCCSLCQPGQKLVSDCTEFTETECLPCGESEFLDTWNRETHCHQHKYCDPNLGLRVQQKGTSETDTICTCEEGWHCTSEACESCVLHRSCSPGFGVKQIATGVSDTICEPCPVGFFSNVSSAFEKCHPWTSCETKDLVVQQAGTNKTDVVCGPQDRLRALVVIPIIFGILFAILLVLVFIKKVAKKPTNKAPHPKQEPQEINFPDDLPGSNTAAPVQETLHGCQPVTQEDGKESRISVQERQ

- CD95 expression level in Ramos cells stimulated with soluble CD40 ligand, isotype control of FIG. 4 (average fluorescence intensity) [1]: 27.2
- CD95 expression level in Ramos cells, isotype control of FIG. 2A (average fluorescence intensity) [1]: 7.58
- CD95 expression level in Ramos cells, isotype control of FIG. 2B (average fluorescence intensity) [1]: 7.58
- CD95 expression level in Ramos cells, isotype control of FIG. 2C (average fluorescence intensity) [1]: 6.29
- average fluorescence intensity (average fluorescence intensity) [2]: 5.01
- average fluorescence intensity (average fluorescence intensity) [3]: 7.15
- average fluorescence intensity (average fluorescence intensity) [4]: 7.15
- average fluorescence intensity (average fluorescence intensity) [5]: 5.01
Substance: human IgG1 antibody against human serum albumin
